{
  "source": "patent US20250161478A1",
  "about": "(GLYKOS FINLAND, published 2025)",
  "binders": {"B1": {"name": "GMAuM (gemtuzumab-maleimidoacetyl-β-Ala-Val-Ser(Glc)-PAB-MMAU), DAR 8 (antibody, human IgG4 S228P, kappa, V domains shown)", "VH": "EVQLVQSGAEVKKPGSSVKVSCKASGYTITDSNIHWVRQAPGQSLEWIGYIYPYNGGTDYNQKFKNRATLTVDNPTNTAYMELSSLRSEDTAFYYCVNGNPWLAYWGQGTLVTVSS", "VL": "DIQLTQSPSTLSASVGDRVTITCRASESLDNYGIRFLTWFQQKPGKAPKLLMYAASNQGSGVPSRFSGSGSGTEFTLTISSLQPDDFATYYCQQTKEVPWSFGQGTKVEVKR", "modifications": "AuM linker-payload on reduced interchain cysteine; AuM linker-payload (maleimidoacetyl-β-Ala-Val-Ser(Glc)-PAB-MMAU) on reduced interchain cysteines; DAR 8.0 in all"}, "B2": {"name": "FLCPeMala (cysteine engineered flanvotumab HC N299C conjugated with MA-Ac-β-Ala-EDA-PNU), DAR 2.0 (antibody, human IgG1, kappa)", "heavy": "not shown", "light": "not shown", "modifications": "PeMala linker-payload (maleimidoacetyl-β-Ala-EDA-PNU) on the engineered cysteine (N299C); DAR 2.0"}, "B3": {"name": "CHPeD (glycoconjugated chimeric TA99-DBCO-Val-Ser(GlcA)-EDA-PNU ADC), DAR 2 (antibody, human IgG1, kappa, V domains shown)", "VH": "EVQLQQSGAELVRPGALVKLSCKTSGFNIKDYFLHWVRQRPDQGLEWIGWINPDNGNTVYDPKFQGTASLTADTSSNTVYLQLSGLTSEDTAVYFCTRRDYTYEKAALDYWGQGTTVTVST", "VL": "IQMSQSPASLSASVGETVTITCRASGNIYNYLAWYQQKQGKSPHLLVYDAKTLADGVPSRFSGSGSGTQYSLKISSLQTEDSGNYYCQHFWSLPFTFGSGTKLEIKR", "modifications": "DBCO-Val-Ser(GlcA)-EDA-PNU on GalNAz of the trimmed Fc N-glycan; DAR 2"}, "B4": {"name": "CHAuM (chimeric TA99-maleimidoacetyl-β-Ala-Val-Ser(Glc)-PAB-MMAU), DAR 6 (antibody, human IgG1, kappa, V domains shown)", "VH": "B3 VH", "VL": "B3 VL", "modifications": "AuM linker-payload on reduced interchain cysteine; AuM linker-payload (maleimidoacetyl-β-Ala-Val-Ser(Glc)-PAB-MMAU) on reduced interchain cysteines; DAR 6 in all"}, "B5": {"name": "FLCPeMg (cysteine engineered flanvotumab HC N299C conjugated with MA-Ac-β-Ala-VS(GlcA)-EDA-PNU), DAR 2.2 (antibody, human IgG1, kappa)", "heavy": "not shown", "light": "not shown", "modifications": "PeMg linker-payload (maleimidoacetyl-β-Ala-Val-Ser(GlcA)-EDA-PNU) on the engineered cysteine (N299C); DAR 2.2"}, "B6": {"name": "LNCAuM (cysteine engineered lintuzumab HC N296C-maleimidoacetyl-β-Ala-Val-Ser(Glc)-PAB-MMAU), DAR 1.7 (antibody, human IgG1, kappa, V domains shown)", "VH": "QVQLVQSGAEVKKPGSSVKVSCKASGYTFTDYNMHWVRQAPGQGLEWIGYIYPYNGGTGYNQKFKSKATITADESTNTAYMELSSLRSEDTAVYYCARGRPAMDYWGQGTLVTVSS", "VL": "DIQMTQSPSSLSASVGDRVTITCRASESVDNYGISFMNWFQQKPGKAPKLLIYAASNQGSGVPSRFSGSGSGTDFTLTISSLQPDDFATYYCQQSKEVPWTFGQGTKVEIKR", "modifications": "AuM linker-payload (maleimidoacetyl-β-Ala-Val-Ser(Glc)-PAB-MMAU) on the engineered cysteine (N296C); DAR 1.7"}, "B7": {"name": "LNCAuMb (cysteine engineered lintuzumab HC N296C conjugated with branched N-MAL-N-bis(Peg2)-Val-Ser(Glc)-PAB-MMAU), DAR 3.3 (antibody, human IgG1, kappa, V domains shown)", "VH": "B6 VH", "VL": "B6 VL", "modifications": "branched AuMb linker-payload (N-MAL-N-bis(Peg2)-Val-Ser(Glc)-PAB-MMAU) on the engineered cysteine (N296C); DAR 3.3"}, "B8": {"name": "FLCPeMa (cysteine engineered flanvotumab HC N299C conjugated with MA-Ac-EDA-PNU), DAR 1.7 (antibody, human IgG1, kappa)", "heavy": "not shown", "light": "not shown", "modifications": "PeMa linker-payload (maleimidoacetyl-EDA-PNU) on the engineered cysteine (N299C); DAR 1.7"}, "B9": {"name": "FLCPeMcv (cysteine engineered flanvotumab HC N299C conjugated with MA-caproyl-Val-Cit-PAB-EDA-PNU), DAR 1.4 (antibody, human IgG1, kappa)", "heavy": "not shown", "light": "not shown", "modifications": "PeMcv linker-payload (MA-caproyl-Val-Cit-PAB-EDA-PNU) on the engineered cysteine (N299C); DAR 1.4"}},
  "assay_in_all_cases": "cell-based or functional assay",
  "key": {"[1]": {"target": "T1, CD33 on leukemia cell lines (HL-60, MOLM-13, KG-1, K-562) (UniProt P20138 18-364, limits assumed)", "T1 sequence (P20138 18-364 limits assumed)": "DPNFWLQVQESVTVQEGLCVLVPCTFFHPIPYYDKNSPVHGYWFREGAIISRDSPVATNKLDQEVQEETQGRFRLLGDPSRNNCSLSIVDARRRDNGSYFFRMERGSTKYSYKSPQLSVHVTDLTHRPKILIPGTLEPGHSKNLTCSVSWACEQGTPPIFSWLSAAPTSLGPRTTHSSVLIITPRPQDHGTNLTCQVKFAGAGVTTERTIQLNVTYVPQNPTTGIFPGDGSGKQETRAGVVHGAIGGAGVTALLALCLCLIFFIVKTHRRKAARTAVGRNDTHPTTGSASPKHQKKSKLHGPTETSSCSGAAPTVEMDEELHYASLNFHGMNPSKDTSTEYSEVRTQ"}, "[2]": {"target": "T2, TYRP1 antigen on human melanoma cells (IGR-1, SK-MEL-30, SK-MEL-28) (human, UniProt P17643 25-537)"}, "[3]": {"target": "T2, TYRP1 antigen on human melanoma cells …", "remark": "listed apart in the source"}, "[4]": {"target": "T2, TYRP1 antigen on human melanoma cells …", "remark": "listed apart in the source"}, "[5]": {"target": "T2, TYRP1 antigen on human melanoma cells …", "remark": "listed apart in the source"}, "[6]": {"target": "T1, CD33 on leukemia cell lines (HL-60, …)", "remark": "listed apart in the source"}, "[7]": {"target": "T1, CD33 on leukemia cell lines (HL-60, …)", "remark": "listed apart in the source"}, "[8]": {"target": "T2, TYRP1 antigen on human melanoma cells …", "remark": "listed apart in the source"}, "[9]": {"target": "T2, TYRP1 antigen on human melanoma cells …", "remark": "listed apart in the source"}},
  "note": "Where two headings read alike, the source gives them in different places.",
  "data": [
    {"binder": "B1", "values": [
      {"measurement": "IC50, cytotoxicity, HL-60 cells, 5 days", "setting": "[1]", "result": 0.583, "unit": "nM"},
      {"measurement": "IC50, cytotoxicity, K-562 (low CD33) cells, 3 days", "setting": "[1]", "result": 241, "unit": "nM"},
      {"measurement": "IC50, cytotoxicity, MOLM-13 cells, 3 days", "setting": "[1]", "result": 0.206, "unit": "nM"}
    ]},
    {"binder": "B2", "values": [
      {"measurement": "IC50, cell viability (PrestoBlue), IGR-1 cells", "setting": "[2]", "result": 0.649, "unit": "nM"}
    ]},
    {"binder": "B3", "values": [
      {"measurement": "IC50, cell viability (PrestoBlue), IGR-1 cells", "setting": "[3]", "result": 1.4, "unit": "nM"},
      {"measurement": "IC50, cell viability (PrestoBlue), SK-MEL-28 cells", "setting": "[3]", "result": 55, "unit": "nM"},
      {"measurement": "IC50, cell viability (PrestoBlue), SK-MEL-30 cells", "setting": "[3]", "result": 5.7, "unit": "nM"}
    ]},
    {"binder": "B4", "values": [
      {"measurement": "IC50, cell viability (PrestoBlue), IGR-1 cells", "setting": "[4]", "result": 2.2, "unit": "nM"},
      {"measurement": "IC50, cell viability (PrestoBlue), SK-MEL-28 cells", "setting": "[4]", "result": "> 300", "unit": "nM"},
      {"measurement": "IC50, cell viability (PrestoBlue), SK-MEL-30 cells", "setting": "[4]", "result": 48, "unit": "nM"}
    ]},
    {"binder": "B5", "values": [
      {"measurement": "IC50, cell viability (PrestoBlue), IGR-1 cells", "setting": "[5]", "result": "0.417 to 0.484", "unit": "nM"},
      {"measurement": "IC50, cell viability (PrestoBlue), SK-MEL-30 cells", "setting": "[5]", "result": "4.3 to 10", "unit": "nM"}
    ]},
    {"binder": "B6", "values": [
      {"measurement": "IC50, cytotoxicity, HL-60 cells, 5 days", "setting": "[6]", "result": 16, "unit": "nM"}
    ]},
    {"binder": "B7", "values": [
      {"measurement": "IC50, cytotoxicity, HL-60 cells, 5 days", "setting": "[7]", "result": 2.2, "unit": "nM"}
    ]},
    {"binder": "B8", "values": [
      {"measurement": "IC50, cell viability (PrestoBlue), IGR-1 cells", "setting": "[8]", "result": 1.2, "unit": "nM"},
      {"measurement": "IC50, cell viability (PrestoBlue), SK-MEL-30 cells", "setting": "[8]", "result": 22, "unit": "nM"}
    ]},
    {"binder": "B9", "values": [
      {"measurement": "IC50, cell viability (PrestoBlue), IGR-1 cells", "setting": "[9]", "result": "0.414 to 0.716", "unit": "nM"},
      {"measurement": "IC50, cell viability (PrestoBlue), SK-MEL-30 cells", "setting": "[9]", "result": "2.8 to 4", "unit": "nM"}
    ]}
  ]
}
